Experimental data taken from US20190309059A1 (SHANGHAI PHARMAEXPLORER, published 2019).
Blank lines part the entries; values can stand above or below the binder they belong to.

Tests used:
[1] = target: his-labeled human IL-13R130Q variant (human) (UniProt P35225); assay: ELISA, IL-13R130Q variant; antibody at 2.67 nM
[2] = target: his-labeled human IL-13R130Q variant (human) (UniProt P35225); assay: ELISA, IL-13R130Q variant; antibody at 0.53 nM
[3] = target: his-labeled human IL-13R130Q variant (human) (UniProt P35225); assay: ELISA, IL-13R130Q variant; antibody at 0.004 nM
[4] = target: his-labeled human IL-13R130Q variant (human) (UniProt P35225); assay: ELISA, IL-13R130Q variant; antibody at 0.021 nM
[5] = target: his-labeled human IL-13 (immunogen A) (human) (UniProt P35225); assay: SPR (Biacore), antibody captured by anti-human Fc, immunogen A as analyte
[6] = target: his-labeled human IL-13R130Q variant (human) (UniProt P35225); assay: ELISA, IL-13R130Q variant; antibody at 0.11 nM
[7] = target: his-labeled human IL-13R130Q variant (human) (UniProt P35225); assay: ELISA, IL-13R130Q variant; antibody at 66.67 nM
[8] = target: his-labeled human IL-13R130Q variant (human) (UniProt P35225); assay: ELISA, IL-13R130Q variant; antibody at 13.33 nM
[9] = target: his-labeled human IL-13 (immunogen A) (human) (UniProt P35225); assay: SPR (Biacore)
[10] = target: his-labeled human IL-13 (immunogen A) (human) (UniProt P35225); assay: FACS blocking, biotin-IL-13 on IL-13Ra2 HEK293 cells; antibody at 0.27 nM
[11] = target: his-labeled human IL-13 (immunogen A) (human) (UniProt P35225); assay: FACS blocking, biotin-IL-13 on IL-13Ra2 HEK293 cells; antibody at 1.33 nM
[12] = target: his-labeled human IL-13 (immunogen A) (human) (UniProt P35225); assay: FACS blocking, biotin-IL-13 on IL-13Ra2 HEK293 cells; antibody at 33.33 nM
[13] = target: his-labeled human IL-13 (immunogen A) (human) (UniProt P35225); assay: FACS blocking, biotin-IL-13 on IL-13Ra1/IL-4Ra HEK293 cells; antibody at 0.01 nM
[14] = target: his-labeled human IL-13 (immunogen A) (human) (UniProt P35225); assay: FACS blocking, biotin-IL-13 on IL-13Ra1/IL-4Ra HEK293 cells; antibody at 1.33 nM
[15] = target: his-labeled human IL-13 (immunogen A) (human) (UniProt P35225); assay: FACS blocking, biotin-IL-13 on IL-13Ra1/IL-4Ra HEK293 cells; antibody at 0.05 nM
[16] = target: his-labeled human IL-13 (immunogen A) (human) (UniProt P35225); assay: FACS blocking, biotin-IL-13 on IL-13Ra1/IL-4Ra HEK293 cells; antibody at 0.002 nM
[17] = target: his-labeled human IL-13 (immunogen A) (human) (UniProt P35225); assay: FACS blocking, biotin-IL-13 on IL-13Ra2 HEK293 cells; antibody at 0.01 nM
[18] = target: his-labeled human IL-13 (immunogen A) (human) (UniProt P35225); assay: cell-based or functional assay
[19] = target: his-labeled human IL-13 (immunogen A) (human) (UniProt P35225); assay: FACS blocking, biotin-IL-13 on IL-13Ra2 HEK293 cells; antibody at 166.67 nM
[20] = target: his-labeled human IL-13 (immunogen A) (human) (UniProt P35225); assay: FACS blocking, biotin-IL-13 on IL-13Ra1/IL-4Ra HEK293 cells; antibody at 166.67 nM
[21] = target: his-labeled human IL-13 (immunogen A) (human) (UniProt P35225); assay: FACS blocking assay: antibody titrated with biotin-labeled immunogen A (30 ng/mL); blocked partner IL-13Ra1/IL-4Ra on HEK293 clone 4C1; Alexa 488 streptavidin
[22] = target: his-labeled human IL-13 (immunogen A) (human) (UniProt P35225); assay: FACS blocking assay: antibody titrated with biotin-labeled immunogen A (20 ng/mL); blocked partner IL-13Ra2 on HEK293 clone 1A1; Alexa 488 streptavidin
[23] = target: his-labeled human IL-13 (immunogen A) (human) (UniProt P35225); assay: FACS blocking, biotin-IL-13 on IL-13Ra2 HEK293 cells; antibody at 0.002 nM
[24] = target: his-labeled human IL-13 (immunogen A) (human) (UniProt P35225); assay: FACS blocking, biotin-IL-13 on IL-13Ra2 HEK293 cells; antibody at 0.05 nM
[25] = target: his-labeled human IL-13 (immunogen A) (human) (UniProt P35225); assay: FACS blocking, biotin-IL-13 on IL-13Ra1/IL-4Ra HEK293 cells; antibody at 33.33 nM
[26] = target: his-labeled human IL-13 (immunogen A) (human) (UniProt P35225); assay: FACS blocking, biotin-IL-13 on IL-13Ra1/IL-4Ra HEK293 cells; antibody at 6.67 nM
[27] = target: his-labeled human IL-13 (immunogen A) (human) (UniProt P35225); assay: FACS blocking, biotin-IL-13 on IL-13Ra1/IL-4Ra HEK293 cells; antibody at 0.27 nM
[28] = target: his-labeled human IL-13 (immunogen A) (human) (UniProt P35225); assay: FACS blocking, biotin-IL-13 on IL-13Ra2 HEK293 cells; antibody at 6.67 nM

Sequence of his-labeled human IL-13R130Q variant (human) (P35225 other isoform, or with tags, fused parts or gaps mutant): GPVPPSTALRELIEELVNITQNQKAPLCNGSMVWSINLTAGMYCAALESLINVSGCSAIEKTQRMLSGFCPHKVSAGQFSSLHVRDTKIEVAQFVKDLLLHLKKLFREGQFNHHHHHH

OD450 nm [1]: 2.97
OD450 nm [2]: 2.13
OD450 nm [3]: 0.11
OD450 nm [4]: 0.23
Kd [5]: 0.336 nM
koff [5]: 0.000445 s⁻¹
kon [5]: 1.33e+06 M⁻¹ s⁻¹
OD450 nm [6]: 0.8
OD450 nm [7]: 3.31
OD450 nm [8]: 3.23
Kd [9]: < 90 nM
B1: c35H6E1 (mouse-human chimeric IL-13 antibody) (antibody, V domains shown)
VH: QVTLKESGPGILQSSQTLSLTCSFSGFSLSTSNMGVSWIRQPSGKGLEWLAHIYWDDDKRYNPSLESRLTISKDTSRNQVFLKITSVDTADSATYYCARRTNYFSTRDYFDYWGQGTTLTVSS
VL: DIQMTQSPASLSVSVGETVTITCRASENIYSNLVWYQQKQGKSPQLLVYAATKLADGVPSRFSGSGSGTQYSLKINSLQSEDFGSYYCQHFWGFPWTFGGGTKLEIK

mean fluorescence intensity [10]: 78.4
mean fluorescence intensity [11]: 49.1
mean fluorescence intensity [12]: 27.8
mean fluorescence intensity [13]: 98.3
mean fluorescence intensity [14]: 53.3
mean fluorescence intensity [15]: 96.9
Kd [5]: 1.02 nM
koff [5]: 0.000271 s⁻¹
kon [5]: 267000 M⁻¹ s⁻¹
mean fluorescence intensity [16]: 96
mean fluorescence intensity [17]: 97.6
Periostin (pg/mL), MRCS cells + IL-13 5 ng/mL; antibody at 0.0002 nM [18]: 6960 pg/mL
Periostin (pg/mL), MRCS cells + IL-13 5 ng/mL; antibody at 0.001 nM [18]: 6050 pg/mL
Periostin (pg/mL), MRCS cells + IL-13 5 ng/mL; antibody at 0.004 nM [18]: 5010 pg/mL
Periostin (pg/mL), MRCS cells + IL-13 5 ng/mL; antibody at 0.021 nM [18]: 4540 pg/mL
Periostin (pg/mL), MRCS cells + IL-13 5 ng/mL; antibody at 0.11 nM [18]: 4570 pg/mL
Periostin (pg/mL), MRCS cells + IL-13 5 ng/mL; antibody at 0.53 nM [18]: 3660 pg/mL
Periostin (pg/mL), MRCS cells + IL-13 5 ng/mL; antibody at 2.67 nM [18]: 2620 pg/mL
Periostin (pg/mL), MRCS cells + IL-13 5 ng/mL; antibody at 13.3 nM [18]: 1260 pg/mL
TARC (pg/mL), A549 cells + IL-13 + TNFα; antibody at 0.001 nM [18]: 2610 pg/mL
TARC (pg/mL), A549 cells + IL-13 + TNFα; antibody at 0.004 nM [18]: 3030 pg/mL
TARC (pg/mL), A549 cells + IL-13 + TNFα; antibody at 0.021 nM [18]: 2770 pg/mL
TARC (pg/mL), A549 cells + IL-13 + TNFα; antibody at 0.11 nM [18]: 2780 pg/mL
TARC (pg/mL), A549 cells + IL-13 + TNFα; antibody at 0.53 nM [18]: 2800 pg/mL
TARC (pg/mL), A549 cells + IL-13 + TNFα; antibody at 2.67 nM [18]: 2240 pg/mL
TARC (pg/mL), A549 cells + IL-13 + TNFα; antibody at 13.3 nM [18]: 1120 pg/mL
TARC (pg/mL), A549 cells + IL-13 + TNFα; antibody at 66.7 nM [18]: 348 pg/mL
VCAM-1 fluorescence intensity, HUVEC + IL-13 0.5 ng/mL + TNFα; antibody at 0.0002 nM [18]: 368
VCAM-1 fluorescence intensity, HUVEC + IL-13 0.5 ng/mL + TNFα; antibody at 0.001 nM [18]: 343
VCAM-1 fluorescence intensity, HUVEC + IL-13 0.5 ng/mL + TNFα; antibody at 0.004 nM [18]: 374
VCAM-1 fluorescence intensity, HUVEC + IL-13 0.5 ng/mL + TNFα; antibody at 0.021 nM [18]: 403
VCAM-1 fluorescence intensity, HUVEC + IL-13 0.5 ng/mL + TNFα; antibody at 0.11 nM [18]: 316
VCAM-1 fluorescence intensity, HUVEC + IL-13 0.5 ng/mL + TNFα; antibody at 0.53 nM [18]: 286
VCAM-1 fluorescence intensity, HUVEC + IL-13 0.5 ng/mL + TNFα; antibody at 2.67 nM [18]: 272
VCAM-1 fluorescence intensity, HUVEC + IL-13 0.5 ng/mL + TNFα; antibody at 13.3 nM [18]: 223
mean fluorescence intensity [19]: 24.6
mean fluorescence intensity [20]: 20.8
IC50 (read off the curve) [21]: 1 nM
IC50 (read off the curve) [22]: 0.7 nM
mean fluorescence intensity [23]: 97.5
mean fluorescence intensity [24]: 94
mean fluorescence intensity [25]: 22.6
mean fluorescence intensity [26]: 27.3
mean fluorescence intensity [27]: 83.7
mean fluorescence intensity [28]: 31
Kd [9]: < 90 nM
B2: c70F10A10 (mouse-human chimeric IL-13 antibody) (antibody, V domains shown)
VH: QIQLQQSGAELARPGASVKLSCKASGYTFTSYGISWVKQRDGQGLEWIGEIYPRSGNTDYNEKFKGKATLTADKSSSTAYMELRSLTSEDSAVYFCSSFTTLVPTDYFDYWGQGTTLTVSS
VL: DIMMSQSPSSLAVSVGEKVSMTCKSSQSLLYSSNQKNYLAWYQQKPGQSPKMLIYWASTRETGVPDRFTGSGSGTDFTLTISSVMAEDLAVYYCHQYFTYPRTFGDGTKLEVK

mean fluorescence intensity [10]: 46.8
mean fluorescence intensity [11]: 46
mean fluorescence intensity [12]: 39.1
mean fluorescence intensity [13]: 73.5
mean fluorescence intensity [14]: 30.7
mean fluorescence intensity [15]: 67.6
mean fluorescence intensity [16]: 72.5
mean fluorescence intensity [17]: 75.6
TARC (pg/mL), A549 cells + IL-13 5 ng/mL + TNFα; antibody at 0.001 nM [18]: 2000 pg/mL
TARC (pg/mL), A549 cells + IL-13 5 ng/mL + TNFα; antibody at 0.004 nM [18]: 1830 pg/mL
TARC (pg/mL), A549 cells + IL-13 5 ng/mL + TNFα; antibody at 0.021 nM [18]: 1600 pg/mL
TARC (pg/mL), A549 cells + IL-13 5 ng/mL + TNFα; antibody at 0.11 nM [18]: 1630 pg/mL
TARC (pg/mL), A549 cells + IL-13 5 ng/mL + TNFα; antibody at 0.5 nM [18]: 1500 pg/mL
TARC (pg/mL), A549 cells + IL-13 5 ng/mL + TNFα; antibody at 2.7 nM [18]: 1140 pg/mL
TARC (pg/mL), A549 cells + IL-13 5 ng/mL + TNFα; antibody at 13.3 nM [18]: 656 pg/mL
TARC (pg/mL), A549 cells + IL-13 5 ng/mL + TNFα; antibody at 66.7 nM [18]: 207 pg/mL
mean fluorescence intensity [19]: 37.8
mean fluorescence intensity [20]: 19.3
IC50 (read off the curve) [22]: 0.1 nM
mean fluorescence intensity [23]: 76.7
mean fluorescence intensity [24]: 70.8
mean fluorescence intensity [25]: 20.3
mean fluorescence intensity [26]: 24.7
mean fluorescence intensity [27]: 51.9
mean fluorescence intensity [28]: 42.3
B3: 70F10A10 (lead antibody, mouse hybridoma) (antibody, V domains shown)
VH: B2 VH
VL: B2 VL
